Bounds are passed on as bounds.

The target of the test is fusion protein DBD-AppCt (GAL4 DBD fused to amino acids 650 to 695 of App) (Saccharomyces cerevisiae) (UniProt P04386). As to the kind of experiment: cell-based or functional assay.

B1: fusion protein AD-Fe65 (GAL4 activation domain fused to amino acids 152 to 708 of Fe65) (protein)
chain: MDKAELIPEPPKKKRKVELGTAANFNQSGNIADSSLSFTFTNSSNGPNLITTQTNSQALSQPIASSNVHDNFMNNEITASKIDDGNNSKPLSPGWTDQTAYNAFGITTGMFNTTTMDDVYNYLFDDEDTPPNPKKEIEFKAAGEAEEEEEDDDDEEEEEDLSSPPGLPEPLESVEAPPRPQALTDGPREHSKSASLLFGMRNSAASDEDSSWATLSQGSPSYGSPEDTDSFWNPNAFETDSDLPAGWMRVQDTSGTYYWHIPTGTTQWEPPGRASPSQGSSPQEESQLTWTGFAHGEGFEDGEFWKDEPSDEAPMELGLKEPEEGTLTFPAQSLSPEPLPQEEEKLPPRNTNPGIKCFAVRSLGWVEMTEEELAPGRSSVAVNNCIRQLSYHKNNLHDPMSGGWGEGKDLLLQLEDETLKLVEPQSQALLHAQPIISIRVWGVGRDSGRDFAYVARDKLTQMLKCHVFRCEAPAKNIATSLHEICSKIMAERRNARCLVNGLSLDHSKLVDVPFQVEFPAPKNELVQKFQVYYLGNVPVAKPVGVDVINGALESVLSSSSREQWTPSHVSVAPATLTILHQQTEAVLGECRVRFLSFLAVGRDVHTFAFIMAAGPASFCCHMFWCEPNAASLSEAVQAACMLRYQKCLDARSQASTSCLPAPPAESVARRVGWTVRRGVQSLWGSLKPKRLGAHTP
Take B1: the 3-AT concentration at which differences in cell growth are detected was more than 15 mM and the growth of strain yRB49 (UI) plated on solid medium with 3-AT amounted to 1 mM.

These data come from patent publication US20090005253A1, “Double Hybrid System Based on Gene Silencing by Transcriptional Interference” (AVENTIS PHARMA S.A., priority 2004, published 2009).
